Numbering of substitutions follows the chain as printed.
B1: antibody 399 (antibody, V domains shown)
VH: QVQLVQSGAEVKKPGASVKVSCKASGYTFTSYGISWVRQAPGQGLEWMGWISAYNGNTNYAQKLQGRVTMTTDTSTSTAYMELRSLRSDDTAVYYCARDSGYDWAGGHYYYYGMDVWGQGTTVTVSS
VL: QSALTQPASVSGSPGQSITISCTGTSSDVGGYNYVSWYQQHPGKAPKLMIYEVSNRPSGVSNRFSGSKSGNTASLTISGLQAEDEADYYCSSYTSSSTLVVFGGGTKLTVL
B2: antibody 391 (antibody, V domains shown)
VH: EVQLVESGGGLVQPGGSLRLSCAASGFTFSSYWMHWVRQAPGKGLVWVSRINSDGSSTSYADSVKGRFTISRDNAKNTLYLQMNSLRAEDTAVYYCALGPLDIVGSYYYYGMDVWGQGTTVTVSS
VL: NFMLTQPHSVSESPGKTVTISCTGSSGSIASNYVQWYQQRPGSAPTTVIYEDNQRPSGVPDRFSGSIDSSSNSASLTISGLKTEDEADYYCQSYDSSNQDVVFGGGTKLTVL
B3: antibody 400 (antibody, V domains shown)
VH: QVQLVESGGGVVQPGRSLRLSCAASGFTFSSYGMHWVRQAPGKGLEWVAVISYDGSNKYYADSVKGRFTISRDNSKNTLYLQMNSLRAEDTAVYYCAKAIDILTGYGPGGMDVWGQGTTVTVSS
VL: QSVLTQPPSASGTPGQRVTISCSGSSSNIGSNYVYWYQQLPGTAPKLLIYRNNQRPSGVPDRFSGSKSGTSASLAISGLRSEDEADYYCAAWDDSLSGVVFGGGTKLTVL
B4: antibody 393 (antibody, V domains shown)
VH: QVQLVESGGGVVQPGRSLRLSCAASGFTFSSYAMHWVRQAPGQGLEWVAVISYDGSNKYYADSVKGRFTISRDNSKNTLYLQMNSLRAEDTAVYYCARAGSGSRHYYGMDVWGQGTTVTVSS
VL: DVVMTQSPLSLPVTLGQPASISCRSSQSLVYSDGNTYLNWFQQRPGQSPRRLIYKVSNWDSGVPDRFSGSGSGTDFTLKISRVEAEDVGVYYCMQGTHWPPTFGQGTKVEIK
B5: antibody 455 (antibody, V domains shown)
VH: QVQLVQSGAEVKKPGSSVKVSCKASGGTFSSYAISWVRQAPGQGLEWMGRIIPILGIANYAQKFQGRVTITADKSTSTAYMELSSLRSEDTAVYYCARDSIVVPAAIISGYYYYGMDVWGQGTTVTVSS
VL: QSVLTQPPSVSAAPGQKVTISCSGSSSNIGNNYVSWYQQLPGTAPKLLIYDNNKRPSGIPDRFSGSKSGTSATLGITGLQTGDEADYYCGTWDSSLSAGRVFGGGTKLTVL
B6: antibody 453 (antibody, V domains shown)
VH: QVQLVESGGGVVQPGRSLRLSCAASGFTFSSYAMYWVRQAPGKGLEWVAVISYDGSNKYYADSVKGRFTISRDNSKNTLYLQMNSLRAEDTAVYYCARDRPHYYGSGRKILNLYGMDVWGQGTTVTVSS
VL: DIQLTQSPSFLSASVGDRVTITCRASQGISSYLAWYQQKPGKAPKLLIYAASTLQSGVPSSFSGSGSGTEFTLTISSLQPEDFATYYCQQLNSYPPFTFGPGTKVDIK
B7: antibody 449 (antibody, V domains shown)
VH: not shown
VL: QSALTQPASVSGSPGQSITISCTGTSSDVGGYNYVSWYQQHPGKAPKLMIYEVSNRPSGVSNRFSGSKSGNTASLTISGLQAEDEADYYCSSYTSSSTVVFGGGTKLTVL
B8: antibody 433 (antibody, V domains shown)
VH: QVQLVESGGGVVQPGRSLRLSCAASGFTFSSYAMHWVRQAPGKGLEWVAVISYDGSNKYYADSVKGRFTISRDNSKNTLYLQMNSLRAEDTAVYYCAKDYEVVIAIGGPGAFDYWGQGTLVTVSS
VL: SYVLTQPPSVSVAPGKTARITCGGNNIGSKSVHWYQQKPGQAPVLVIYYDSDRPSGIPERFSGSNSGNTATLTISRVEAGDEADYYCQVWDSSSDHVVFGGGTKLTVL
B9: antibody 402 (antibody, V domains shown)
VH: QVQLVQSGAEVKKPGASVKVSCKVSGYTLTELSMHWVRQAPGKGLEWMGGFDPEDVETIYAQKFQGRVTMTEDTSTDTAYMELSSLRSEDTAVYYCATGVAVVGTSHSYYYYYGMDVWGQGTTVTVSS
VL: DIQMTQSPSSLSASVGDRVTITCRASQGISNYLAWYQQKPGKVPKLLIYAASTLQSGVPSRFSGSGSGTDFTLTISSLQPEDVATYYCQKYNSAPFTFGPGTKVDIK
B10: antibody 448 (antibody, V domains shown)
VH: QVQLVQSGAEVKKPGASVKVSCKASGYTFTSYGISWVRQAPGQGLEWMGWISAYNGNTNYAQKLQGRVTMTTDTSTSTAYMELRSLRSDDTAVYYCAIELLEGFYYYYGMDVWGQGTTVTVSS
VL: SYELTQPPSVSVSPGQTARITCSGDALPKQYAYWYQQKPGQAPVLVIYKDSERPSGIPERFSGSSSGTTVTLTISGVQAEDEADYYCQSADSSGTYPYVVFGGGTKLTVL
B11: antibody 415 (antibody, V domains shown)
VH: QVQLVESGGGVVQPGRSLRLSCAASGFTFSSYAMHWVRQAPGKGLEWVAVISYDGSNKYYADSVKGRFTISRDNSKNTLYLQMNSLRAEDTAVYYCAKTRGGSYFDAFDIWGQGTMVTVSS
VL: not shown
B12: antibody 394 (antibody, V domains shown)
VH: QVQLVQSGAEVKKPGASVKVSCKASGYTFTGYYMHWVRQAPGQGLEWMGWINPNNGGTNSAQKFQGRVTMTRDTSISTAYMELNRLRSDDTAVYYCARDITTTAGTDYYYGMDVWGQGTTVTVSS
VL: SYELTQPPSVSVSPGQTARITCSGDALPKQYAYWYQQKPGQAPVLVICKDSERPSGIPERFSGSSSGTTVTLTISGVQAEDEADYYCQSADSSGTYIVFGTGTKVTVL
B13: antibody 441 (antibody, V domains shown)
VH: EVQLVESGGGVVRPGGSLRLSCAASGFTFGDYGMSWVRQAPGKGLEWVSGINWNGGSTGYADSVKGRFTISRDNAKNSLYLQMNSLRAEDTALYYCASDLVRGVIGFDYWGQGTLVTVSS
VL: B12 VL with C48Y, T95I, Y96T, I97G, T101G, V105L
B14: antibody 397 (antibody, V domains shown)
VH: QVQLVESGGGVVQPGRSLRLSCAASGFTFSSYGMHWVRQAPGKGLESVAVISYDGSNKYYADSVKGRFTISRDNSKNTLYLQMNSLRAEDTAVYYCAKEGQWELQGNAFDIWGQGTMVTVSS
VL: B12 VL with C48Y, A90G, I97R, T101G, V105L
B15: antibody 440 (antibody, V domains shown)
VH: EVQLLESGGGLVQPGGSLRLSCAASGFTFSSYAMSWVRQAPGKGLEWVSAISGSGVNTYHADSVKGRFTISRDNSRNTLYLQMSSLTAEDTAAYYCAKDFEAASGAYYYYGMDVWGQGTTVTVSS
VL: B12 VL with K29D, L45V, C48Y, S51R, S65N, G94A, I97V, T101G, V105L
B16: antibody 410 (antibody, V domains shown)
VH: QVQLVQSGAEVKKPGASVKVSCKASGYTFTSYGISWVRQAPGQGLEWMGWISAYNGNTNYAQKLQGRVTMTTDTSTSTAYMELRSLRSDDTAVYYCARGRITIFGVEYYYGMDVWGQGTTVTVSS
VL: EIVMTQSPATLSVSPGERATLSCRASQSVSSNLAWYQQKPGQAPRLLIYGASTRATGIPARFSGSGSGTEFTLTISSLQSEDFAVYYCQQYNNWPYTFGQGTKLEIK
B17: antibody 451 (antibody, V domains shown)
VH: EVQLVESGGGLVQPGGSLRLSCAASGFTFSTYWMSWVRQAPGKGLEWVANIKQDGSEKYYVDSVKGRFTISRDNAKNSLYLQMNSLRAEDTAVYYCARLGGSSWYFDYWGQGTLVTVSS
VL: not shown
B18: antibody 381 (antibody, V domains shown)
VH: QVQLVESGGGVVQPGRSLRLSCAASGFTFSSYAMHWVRQAPGKGLEWVAVISYDGSNKYYADSVKGRFTISRDNSKNTLYLQMNSLRAEDTAVYYCARDRQYYDILTGYYLPTSEYYFDYWGQGTLVTVSS
VL: DIQMTQSPSSVSASVGDRVTITCRASQGISSWLAWYQQKPGKAPKLLIYAASSLQSGVPSRFSGSGSGTDFTLTISSLQPEDFATYYCQQANSFPPTFGGGTKVEIK
B19: antibody 387 (antibody, V domains shown)
VH: QVQLVESGGGVVQPGRSLRLSCAASGFTFSSYGMHWVRQAPGKGLEWVAVISYDGSNKYYADSVKGRFTISRDNSKNTLYLQMNSLRAEDTAVYYCAKDDTKNYGDLDIDYWGQGTLVTVSS
VL: SYELTQPSSVSVSPGQTARITCSGDVLAKKYARWFQQKPGQAPVLVIYKDSERPSGIPERFSGSSSGTTVTLTISGAQVEDEADYYCYSAADNNLGVFGGGTKLTVL
B20: antibody 360 (antibody, V domains shown)
VH: QVQLVESGGGVVQPGRSLRLSCAASGFTFSSYAMHWVRQAPGKGLEWVAVISYDGSNKYYADSVKGRFTISRDNSKNTLYLQMNSLRAEDTAVYYCAKGKNSGSYFFAFDIWGQGTMVTVSS
VL: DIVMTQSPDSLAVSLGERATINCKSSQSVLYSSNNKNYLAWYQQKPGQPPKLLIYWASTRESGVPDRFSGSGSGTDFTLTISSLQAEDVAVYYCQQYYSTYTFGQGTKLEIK
B21: antibody 359 (antibody, V domains shown)
VH: QVQLVESGGGVVQPGRSLRLSCAASGFTFSSYAMHWVRQAPGKGLEWVAVISYDGSNKYYADSVKGRFTISRDNSKNTLYLQMNSLRAEDTAVYYCAYSGNYWYFDLWGRGTLVTVSS
VL: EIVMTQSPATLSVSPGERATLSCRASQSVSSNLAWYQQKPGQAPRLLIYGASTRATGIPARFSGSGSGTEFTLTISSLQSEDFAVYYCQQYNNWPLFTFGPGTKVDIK
B22: antibody 368 (antibody, V domains shown)
V domain 1: QITLKESGPTLVKPTETLTLTCAFSGFSLTKTGEAAGWIRQAPGRALEWVTVIFWDDDKRYSPSLQNRLTVTKDTSKNVVVLTMTNVDPVDTATYFCWAMGGPGKEFFGQGTRVAVSS
V domain 2: QSVLTQPPSVSGAPGQRVTVSCTGTSSSIGPYSDVHWYQHIPGKAPRLLIFGTSNRPSGVPARFSGSKSGSSASLVIAGLQAEDEADYYCQSYDSSLGEIYVFGTGTTVTVL

These binders were tested against SARS-CoV-2 spike protein (SARS-CoV-2, UniProt P0DTC2 14-1208).

B1 and B2 cannot be ordered by Kd: no more than 0.315 nM for the first, no more than 0.37 nM for the second.

First: B3
Second: B4
The Kd of the first is 4.1-fold higher: 1.28 nM for the first, 0.313 nM for the second. The second binds more tightly here.

Compared with B5, B6 is 1.9-fold higher in Kd: 0.866 nM for the first, 1.61 nM for the second.

Compared with B7, B8 is 3.3-fold lower in Kd: 9.17 nM for the first, 2.8 nM for the second. The second binds more tightly here.

Going from B9 to B10, the Kd rises from 2.14 nM to 37.5 nM (18-fold). The first binds more tightly here.

Going from B11 to B12, the Kd rises from no more than 0.0125 nM to 1.32 nM. The first binds more tightly here.

First: B13
Second: B14
The Kd of the first is higher: 3.46 nM for the first, no more than 0.0169 nM for the second. The second binds more tightly here.

Compared with B15, B16 is 3.9-fold lower in Kd: 7.93 nM for the first, 2.05 nM for the second. The second binds more tightly here.

For B17, the Kd was 0.429 nM.

B1 and B2 cannot be ordered by koff: no more than 1e-05 s⁻¹ for the first, no more than 1e-05 s⁻¹ for the second.

Going from B3 to B4, the koff falls from 0.000624 s⁻¹ to 2.95e-05 s⁻¹ (21-fold).

Compared with B5, B6 is 1.7-fold higher in koff: 9.23e-05 s⁻¹ for the first, 0.000154 s⁻¹ for the second.

Compared with B7, B8 is 1.5-fold lower in koff: 0.000526 s⁻¹ for the first, 0.000349 s⁻¹ for the second.

Compared with B9, B10 is 11-fold higher in koff: 6.48e-05 s⁻¹ for the first, 0.000692 s⁻¹ for the second.

Going from B11 to B12, the koff rises from no more than 1e-05 s⁻¹ to 3.52e-05 s⁻¹.

First: B13
Second: B14
The koff of the first is higher: 0.000318 s⁻¹ for the first, no more than 1e-05 s⁻¹ for the second.

B15 and B16 are within 1.5-fold of each other in koff: 0.000291 s⁻¹ for the first, 0.000329 s⁻¹ for the second.

B17 was tested, and the koff was 6.02e-05 s⁻¹.

B1 and B2 are within 1.5-fold of each other in kon: 31700 M⁻¹ s⁻¹ for the first, 27000 M⁻¹ s⁻¹ for the second.

Going from B3 to B4, the kon falls from 488000 M⁻¹ s⁻¹ to 94100 M⁻¹ s⁻¹ (5.2-fold).

B5 and B6 are within 1.5-fold of each other in kon: 107000 M⁻¹ s⁻¹ for the first, 95600 M⁻¹ s⁻¹ for the second.

Going from B7 to B8, the kon rises from 57400 M⁻¹ s⁻¹ to 125000 M⁻¹ s⁻¹ (2.2-fold).

Going from B9 to B10, the kon falls from 30400 M⁻¹ s⁻¹ to 18500 M⁻¹ s⁻¹ (1.6-fold).

First: B11
Second: B12
The kon of the first is 30-fold higher: 802000 M⁻¹ s⁻¹ for the first, 26600 M⁻¹ s⁻¹ for the second.

Compared with B13, B14 is 6.4-fold higher in kon: 91900 M⁻¹ s⁻¹ for the first, 591000 M⁻¹ s⁻¹ for the second.

First: B15
Second: B16
The kon of the first is 4.4-fold lower: 36700 M⁻¹ s⁻¹ for the first, 161000 M⁻¹ s⁻¹ for the second.

In the case of B17, the kon is reported as 140000 M⁻¹ s⁻¹.

The binders below were run against SARS-CoV-2 spike (S) protein (SARS-CoV-2, UniProt P0DTC2 14-1208).

Going from B18 to B19, the Kd rises from 6.66 nM to 37.4 nM (5.6-fold).

Going from B20 to B21, the Kd falls from 1.4 nM to 0.441 nM (3.2-fold). The second binds more tightly here.

In the case of B22, the Kd is reported as 12.7 nM.

Compared with B18, B19 is 3.9-fold higher in koff: 0.000207 s⁻¹ for the first, 0.000808 s⁻¹ for the second.

Compared with B20, B21 is 2.2-fold lower in koff: 0.000145 s⁻¹ for the first, 6.67e-05 s⁻¹ for the second.

B22 gave a koff of 0.000486 s⁻¹.

B18 and B19 are within 1.5-fold of each other in kon: 31100 M⁻¹ s⁻¹ for the first, 21600 M⁻¹ s⁻¹ for the second.

B20 and B21 are within 1.5-fold of each other in kon: 104000 M⁻¹ s⁻¹ for the first, 151000 M⁻¹ s⁻¹ for the second.

With B22 the kon was 38100 M⁻¹ s⁻¹.

From US20210292393A1 (published 2021)
